Test results: PMC5113954, “Characterization of the Sucrose Phosphate Phosphatase (SPP) Isoforms from Arabidopsis thaliana and Role of the S6PPc Domain in Dimerization” (PLoS ONE, 2016)

Experiments:
[1] = target: T1, SPP3b (Arabidopsis thaliana, UniProt Q93XN8); experiment: inhibition of Pi release from Suc6P (SnCl2-molybdate); type: biochemical
T1 construct: about 52 kDa subunit, about 90 kDa dimer; cDNA from RIKEN
T1 sequence (Q93XN8 1-423): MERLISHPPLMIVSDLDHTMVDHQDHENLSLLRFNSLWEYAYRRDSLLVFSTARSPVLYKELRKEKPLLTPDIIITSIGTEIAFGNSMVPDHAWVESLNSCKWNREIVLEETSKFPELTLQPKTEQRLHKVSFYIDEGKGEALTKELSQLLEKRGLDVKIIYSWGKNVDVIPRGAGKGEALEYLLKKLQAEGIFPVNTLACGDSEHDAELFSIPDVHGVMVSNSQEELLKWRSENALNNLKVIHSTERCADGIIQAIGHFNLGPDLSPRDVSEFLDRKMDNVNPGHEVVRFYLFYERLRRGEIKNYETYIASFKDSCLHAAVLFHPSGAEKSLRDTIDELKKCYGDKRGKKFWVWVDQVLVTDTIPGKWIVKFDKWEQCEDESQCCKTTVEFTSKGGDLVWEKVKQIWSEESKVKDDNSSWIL

[2] = target: T2, SynSPP (Synechocystis sp. PCC 6803, UniProt P74325); experiment: Pi release (SnCl2-molybdate), specific activity; type: biochemical; conditions: 1.25 mM Suc6P; 8 mM MgCl2, pH 7.0, 37 °C
T2 construct: gene slr0953; full length, N-terminal His6 tag (pQE-80L), E. coli BL21(DE3)

[3] = target: T3, S6PP domain of SPP2 (Arabidopsis thaliana, UniProt Q9SJ66); experiment: Pi release (SnCl2-molybdate), specific activity; type: biochemical; conditions: 1.25 mM Suc6P; 8 mM MgCl2, pH 7.0, 37 °C
T3 construct: N-terminal S6PP (HAD) domain only, C-terminal S6PPc domain removed; ends at ...IGHFKL by reverse primer P11; N-terminal His10 tag (pET-19b), E. coli; about 30 kDa monomer

[4] = target: Chimeric Synechocystis SPP fused at its C-terminus to the S6PPc domain of Arabidopsis SPP2 (SynSPP+S6PPc), His-tagged, from E. coli (Synechocystis sp. PCC 6803 | Arabidopsis thaliana); experiment: SEC; gel filtration of the purified His-tagged proteins; eluted fractions immunoblotted with anti-His antibodies (Fig 7, S1 Fig)
[5] = substrate: O=P(O)(O)OC[C@H]1O[C@@](CO)(O[C@H]2O[C@H](CO)[C@@H](O)[C@H](O)[C@H]2O)[C@@H](O)[C@@H]1O; experiment: Pi release (SnCl2-molybdate), nonlinear regression; type: biochemical, Arabidopsis thaliana; conditions: 25 mM HEPES-KOH pH 7.0, 8 mM MgCl2, 37 °C
From the text: Pi release (SnCl2-molybdate), nonlinear regression on SPP3b

[6] = target: the molecule itself; experiment: SEC; Superose 12 10/300 GL, 25 mM HEPES-KOH pH 7.5, 150 mM KCl, 1 mM PMSF, without Mg2+, 0.4 ml/min; fractions followed by A280 and SPP activity; mass from a calibration curve of standards
[7] = substrate: O=P(O)(O)OC[C@H]1O[C@@](CO)(O[C@H]2O[C@H](CO)[C@@H](O)[C@H](O)[C@H]2O)[C@@H](O)[C@@H]1O; experiment: Pi release (SnCl2-molybdate), nonlinear regression; type: biochemical, Arabidopsis thaliana; conditions: 25 mM HEPES-KOH pH 7.0, 8 mM MgCl2, 37 °C; remark: listed apart in the source
From the text: Pi release (SnCl2-molybdate), nonlinear regression on SPP3a

[8] = substrate: O=P(O)(O)OC[C@H]1O[C@@](CO)(O[C@H]2O[C@H](CO)[C@@H](O)[C@H](O)[C@H]2O)[C@@H](O)[C@@H]1O; experiment: Pi release (SnCl2-molybdate), nonlinear regression; type: biochemical, Arabidopsis thaliana; conditions: 25 mM HEPES-KOH pH 7.0, 8 mM MgCl2, 37 °C; remark: listed apart in the source
From the text: Pi release (SnCl2-molybdate), nonlinear regression on SPP2

T2 sequence (P74325 entry or part of it): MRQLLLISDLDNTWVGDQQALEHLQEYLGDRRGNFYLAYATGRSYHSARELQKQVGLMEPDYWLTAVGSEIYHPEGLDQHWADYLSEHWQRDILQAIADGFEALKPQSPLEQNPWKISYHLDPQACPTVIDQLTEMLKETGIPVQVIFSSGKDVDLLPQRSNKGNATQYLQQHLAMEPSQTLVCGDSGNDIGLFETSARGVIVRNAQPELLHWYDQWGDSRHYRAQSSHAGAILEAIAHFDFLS

OC[C@H]1O[C@@](CO)(O[C@H]2O[C@H](CO)[C@@H](O)[C@H](O)[C@H]2O)[C@@H](O)[C@@H]1O [sucrose]
Ki [1]: 24 mM

O=P(O)(O)OC[C@H]1O[C@@](CO)(O[C@H]2O[C@H](CO)[C@@H](O)[C@H](O)[C@H]2O)[C@@H](O)[C@@H]1O [Suc6P]
Pi release (SnCl2-molybdate), specific activity [2]: The activity of each protein or chimera was determined as described in Materials and Methods | Pi release (SnCl2-molybdate), specific activity [3]: with an activity significantly lower than the native protein

Chimeric Synechocystis SPP fused at its C-terminus to the S6PPc domain of Arabidopsis SPP2 (SynSPP+S6PPc), His-tagged, from E. coli (enzyme)
stoichiometry N [4]: 2

B1: Arabidopsis thaliana sucrose-phosphate phosphatase isoform SPP3b, recombinant Nt-Histag (His10-SPP3b, pET-19b) (enzyme, UniProt Q93XN8 1-423, looked up)
chain: T1 sequence (Q93XN8 1-423)
notes: Sucrose-phosphate phosphatase SPP3b of Arabidopsis thaliana (At3g52340); cDNA from RIKEN, amplified with primers P9 (start codon) and P10 (stop codon); source: E. coli BL21 (DE3), purified (HisTrap HP, Superose 12); not shown: His10, N-terminal, kept
Km [5]: 3.46 ± 0.71 mM | kcat [5]: 3.59 s⁻¹ | kcat/Km [5]: 1040 M⁻¹ s⁻¹ | stoichiometry N [6]: 2

B2: Arabidopsis thaliana sucrose-phosphate phosphatase isoform SPP3a, recombinant Nt-Histag (His10-SPP3a, pET-19b) (enzyme, UniProt Q93WU4 1-425, looked up)
chain: MDRLEGPPRLILVADLDCTLVDHDDPENNDLLRFNALWEAHYRHDSLLVYCTGRSFSSYSSLRKKRPLLTPDIAVTSVGSEIVYGGGESTVSDVVWTARLDYKWNRDIVVEETLKFPKLEPQPDKSQEEHKVSFFVGREDAVEIMKVLPGILEERGVDVKLVYSNGYAFDVLPRGAGKQGALTYLLDKLDIEGKQPSNTLVCGDSGNDAELFNISDVYGVMVSNSHEELLQWYEENAKDNPKIFHASERCGAGMIEAIQRFNLGPNVSPRDVMDTENFHGESLNPAHEVVQFYLFYERWRCGEVEKSDKYLQNLKSLSSPLGIFVHPSGVEKPIHEWIDEMENLYGDGKEKKFRIWLDNVTSSHISSDTWLAKFVKHELSEGKVRSCSTKVLLSYKEEKQRLTWMHIHQSWLDESSSDDQEKWIF
notes: Sucrose-phosphate phosphatase SPP3a of Arabidopsis thaliana (At3g54270); amplified from rosette leaf cDNA with primers P7 (start codon) and P8 (stop codon); source: E. coli BL21 (DE3), purified (HisTrap HP, Superose 12); not shown: His10, N-terminal, kept
Km [7]: 0.87 ± 0.39 mM | kcat [7]: 0.396 s⁻¹ | kcat/Km [7]: 454 M⁻¹ s⁻¹ | stoichiometry N [6]: 2

B3: Arabidopsis thaliana sucrose-phosphate phosphatase isoform SPP2, recombinant Nt-Histag (His10-SPP2, pET-19b) (enzyme, UniProt Q9SJ66 1-422, looked up)
chain: MERLTSPPRLMIVSDLDHTMVDHHDPENLSLLRFNSLWEHAYRHDSLLVFSTGRSPTLYKELRKEKPLLTPDITIMSVGTEITYGNSMVPDHGWVEALNNKWDLGIVKQEASNFPELKLQAETEQRPHKVSFYVEKSKAQEVTKELSQRFLKRGLDVKIIYSGGMDLDILPQGAGKGQALAYLLKKLKTEGKLPVNTLACGDSGNDAELFSIPDVYGVMVSNAQEELLKWHAENAKDNPKVIHAKERCAGGIIQAIGHFKLGPNLSPRDVSDFLEIKVENVNPGHEVVKFFLFYERWRRGEVENSEAYTASLKASVHPGGVFVHPSGTEKSLRDTIDELRKYHGDKQGKKFRVWADQVLATDTTPGTWIVKLDKWEQDGDERRCCTTTVKFTSKEGEGLVWEHVQQTWSKETMVKDDSSWII
notes: Sucrose-phosphate phosphatase SPP2 of Arabidopsis thaliana (At2g35840); cDNA from RIKEN, amplified with primers P5 (start codon) and P6 (stop codon); also called Nt-Histag SPP2; SSP2; source: E. coli BL21 (DE3), purified (HisTrap HP, Superose 12); not shown: His10, N-terminal, kept
Km [8]: 0.73 ± 0.32 mM | kcat [8]: 67.8 s⁻¹ | kcat/Km [8]: 92500 M⁻¹ s⁻¹ | stoichiometry N [6]: 2
